In test [1] the target is bACE2-Ra-eGFP, full length, on BHK-21 cells (Rhinolophus affinis (intermediate horseshoe bat)). The test is described as follows: flow cytometry on cells. A general note: A flow cytometer gives signals particle by particle.
The target in test [2] is intermediate horseshoe bat ACE2 (bACE2-Ra), peptide domain, residues 19-615 (Rhinolophus affinis (intermediate horseshoe bat)). The test is described as follows: SPR.
The target of test [3] is intermediate horseshoe bat ACE2 (bACE2-Ra), peptidase domain, residues 19-615 (Rhinolophus affinis (intermediate horseshoe bat)). In words: SPR. A general note: Surface plasmon resonance follows binding to a sensor surface in real time, without labels.

pKd: −log10 of the molar value.

The pKd is the negative decadic logarithm of the Kd, by convention in mol/L.

For the substance “SARS-CoV-2 receptor-binding domain (RBD) (from UniProt P0DTC2 319-541) (domain or fragment)”, the double-positive rate in test [1] worked out at 31.6%. The substance also showed a pKd in test [2] of 6.35.
As to “SARS-CoV-2 receptor-binding domain (prototype), residues 319-541 (from UniProt P0DTC2 319-541) (domain or fragment)”, the pKd in test [3] is 6.26.

Source of the values: paper PMC9305271.
